Our source for the self-cleavage values is the RNAGym collection of RNA variant scans (doi:10.7554/elife.80360).

The labels stand for the following.
B1: HDV Ribozyme (parent)
chain: GGCCGGCAUGGUCCCAGCCUCCUCGCUGGCGCCGGCUGGGCAACAUUCCGAGGGGACCGUCCCCUCGGUAAUGGCGAAUGGGACCCA

The variants in this data set derive from B1. Briefly: self-cleavage, relative activity (ratio to wild type); higher = more cleavage; co-transcriptional.
Consider G6C G28U, for which the self-cleavage came out at 0.
Take A8C G82A: the self-cleavage was determined as 0.172.
In the case of U20A C64U, the self-cleavage is 0.138.
As for A8U C75U, the self-cleavage came out at 0.298.
For G55U A78G, the self-cleavage is 0.684.
In the case of U23C G50C it was 0.864.
Take C14G G40C: the self-cleavage amounted to 0.
As to G76U G80A, the self-cleavage is 0.595.
On to C66U C86A, for which the self-cleavage came out at 0.905.
As to C63A U69C, the self-cleavage amounted to 1.12.
Regarding G29U G50A, the self-cleavage was 0.104.
With C30U G38C, the self-cleavage is 0.
Under G39U G54U stands 0.722.
G39U G54A: the self-cleavage turned out to be 0.59.
In the case of G59U A77U it was 0.47; in that of G6C C13U, 0.0831; in that of A43C G55U, 0.748.
Turning to C22U C75A, the self-cleavage was determined as 0.0282.
Under C24A C26G stands 0.858.
For G5U C18G, the self-cleavage is 0.
In the case of G11C U12A it was 0.
As to G34U U60G, the self-cleavage was 0.166.
In the case of U9A G35C, the self-cleavage worked out at 0.44.
G28U U69C: the self-cleavage came to 0.0791.
Under C41G G67C stands 0.678; under C48G C85A, 0.8; under G6C G74A, 0.0875.
In the case of C49A G74C it was 0.0755; in that of G55U C57A, 1.12.
Under G80A C85G stands 0.312.
Regarding U20G C85G, the self-cleavage is 0.158.
For the variant G28U U46C, the self-cleavage was found to be 0.
As to U20G C57A, the self-cleavage stood at 0.111.
For the variant C22A U46A, the self-cleavage was 0.104.
As to A51G G80C, the self-cleavage was found to be 0.141.
For G5U C44A, the self-cleavage was found to be 0.119.
For U27A G80C, the self-cleavage was determined as 0.469.
For the variant C3G U23A, the self-cleavage is 0.929.
Under G11C C84A stands 0.458; under A51C A78G, 0.751; under G11U G55U, 0.436.
In the case of C21A U37C it was 0.196; in that of G17A G76A, 0.787.
Under C24U G25U stands 0.138; under G29A C49A, 0.136; under C26A C49A, 1.11.
Take C26U C41U: the self-cleavage was determined as 1.06.
Under C36G A87G stands 0.138; under G54C A87U, 0.901; under C7U A78U, 0.166.
Take C14A U20G: the self-cleavage worked out at 0.
Under C41G A56U stands 0.746; under G74C G82U, 0.179; under G2C G31U, 0.109.
Under U9A A87U stands 1.03.
As for C4U U79A, the self-cleavage came out at 0.755.
Under G31C G55U stands 0.338; under C26G C58A, 1.06; under G25U C33G, 0.119.
In the case of C15G U72G, the self-cleavage stood at 0.128.
In the case of G38C U69G it was 0.356.
Under C62A C84G stands 0.764; under C33A A45U, 0.232; under C15A A51G, 0.923.
For G29U C64G, the self-cleavage was 0.0739.
In the case of G28U G39A it was 0.0256.
Take C63U G74A: the self-cleavage turned out to be 0.546.
For U9G U60C, the self-cleavage was found to be 0.748.
U9A A78G: the self-cleavage stood at 1.04.
Under C49U G59U stands 0.858.
Regarding C49U G59A, the self-cleavage turned out to be 0.935.
For G6U C75A, the self-cleavage was determined as 0.0875.
In the case of A43U G68A it was 0.408.
In the case of G35A A51U it was 0.496.
In the case of G34A A83U it was 0.0831; in that of G28A A87C, 0.0676; in that of G35U C48G, 0.312.
Regarding C36A U69C, the self-cleavage stood at 0.0426.
For the variant G25U U46C, the self-cleavage is 0.
In the case of U65G G81U it was 0.248; in that of G28C G68C, 0.138.
With C66A A78U, the self-cleavage came to 0.198.
In the case of G29A C61A it was 0.177.
With A16C C33A, the self-cleavage is 0.208.
Under G59C C75G stands 0.189.
Under G25A G73U stands 0.0702.
In the case of C15A G74U it was 0.218; in that of C22G A78G, 0.141.
Turning to C66A A83G, the self-cleavage was 0.641.
On to G39A C48G, for which the self-cleavage turned out to be 0.507.
Regarding C57U C63A, the self-cleavage is 1.01.
In the case of A43G C61U it was 0.739.
In the case of G38A G40A it was 0.262; in that of G6C G54U, 0.231; in that of G31A C41G, 0.106.
Under G52U C75A stands 0.148.
Take C7U C86A: the self-cleavage stood at 0.872.
In the case of A71C C86A it was 0.831; in that of U23C U46C, 0.745; in that of C21A G34A, 0.119.
In the case of C3A C41G it was 0.0761.
In the case of C26A U79A it was 0.997; in that of G2C C48G, 0.0545.
With C19U C30A, the self-cleavage was 0.0449.
U65G A71G: the self-cleavage was 0.917.
For G1A U65C, the self-cleavage turned out to be 0.0875.
G68A U69A: the self-cleavage was 1.
As to C24A C48U, the self-cleavage amounted to 0.799.
Under G10C C18G stands 0.0594; under G17U U65G, 0.541.
G31A A71U: the self-cleavage turned out to be 0.447.
Take G6C C61G: the self-cleavage was found to be 0.222.
In the case of C18U A42G it was 0.151; in that of U65C C75A, 0.0489; in that of U37C A45G, 0.762.
In the case of G40U G76U it was 0.795.
Take G35U A56G: the self-cleavage amounted to 0.393.
Under A8C C41U stands 0.748.
Regarding G17U G52A, the self-cleavage came to 0.509.
Under A78U C86G stands 0.163; under C19A G35C, 0.125; under C24U C33U, 0.354.
Turning to U20A A78G, the self-cleavage was determined as 0.
In the case of C22A G82U it was 0.111; in that of A56C U60A, 0.937; in that of U37G U79C, 0.
With U23G G59C, the self-cleavage was found to be 0.9.
In the case of C15G C33G it was 0.0489.
Under A42C G55A stands 0.578; under C24G C58G, 0.108.
With C3G U65A, the self-cleavage came to 0.648.
In the case of C3G U65G it was 0.751; in that of A16U G29C, 0.104; in that of A16U G29U, 0.113.
Under C3U C41A stands 0.807; under C14A C33U, 0.587; under C15G G31C, 0.178.
Regarding U20A A83U, the self-cleavage amounted to 0.0978.
On to A51G A78G, for which the self-cleavage came out at 0.674.
In the case of G10C C36A it was 0.0627; in that of A51C C58G, 1.02; in that of U12A C84U, 0.519.
In the case of C36A G52C it was 0.138; in that of C49A C84G, 0.743; in that of C63U A87G, 0.927.
In the case of C41U A78U it was 0.199; in that of G39U G53C, 0.831; in that of A8C G80U, 0.07.
For G5U G31C, the self-cleavage was determined as 0.0723.
In the case of U12C C36A it was 0.142; in that of C19G G74U, 0.0601.
For C58U A83C, the self-cleavage came out at 0.403.
Under G25A G40C stands 0.0959; under C30G G34A, 0.
In the case of G10A C86G it was 0.639; in that of U9C C49G, 1.03; in that of C32G A78C, 0.0665.
Regarding G10C G73C, the self-cleavage is 0.277.
On to U12G A51C, for which the self-cleavage was determined as 0.415.
For G29C A43U, the self-cleavage came to 0.0519.
In the case of C26G U72C it was 0.862; in that of U12A G81C, 0.0723; in that of G31C U79G, 0.
As to G10C U79A, the self-cleavage stood at 0.277.
In the case of G40U A70U it was 0.69; in that of C64A U72G, 0.856.
Under U47C G55A stands 0.923.
